The results in this text go back to the RNAGym collection of RNA variant scans (doi:10.1073/pnas.2313332121).

First the molecules themselves.
B1: TPR t1 (parent)
chain: GACCAAUCUGCCCUCAGAGCUCGAGAACAUCUUCGGAUGCAGAGGAGGCAGGCUUCGGUGGCGCGAUAGCGCCAACGUCCUCAACCUCCAAUGCAUCCCACCACAUGAUGAUGCCUGAAGAGCCUUGGUUUUUUG

This data set covers variants of B1. Nature of the data set: polymerase ribozyme fitness, log enrichment relative to wild type (log ratio); higher = more active; in vitro selection for triplet polymerase activity. The gist of the method: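 A single round of triplicate in vitro selection, including frozen incubation at −7 °C, was applied to PCR-built, transcribed mutant libraries of each subunit of a heterodimeric triplet polymerase ribozyme. Illumina sequencing of input and output libraries retained genotypes with ≥10 input reads and ≥1 read per output. Fitness is the base-2 logarithm of genotype enrichment divided by wild-type enrichment, from inverse-variance-weighted replicate averages.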
As to GACCAAUCUGCCCUCAGAGCUCGAGAACAUCUUCGGAUGCAGAGGAGGGAGGCUUCGGUGGCGCGAUAGCGCGAACGUCCUCAACCUCUAAUGCAUCCCACCACAUGAUGAUACCUGAAGACCCUUGGUUUUUUG, the “polymerase ribozyme fitness (log ratio)” value is -4.49.

Consider GACCAAUCUGCCCUCAGAGCUCGAGAACAUCUUCGGAUGCAGAGGAGGGAGGCUUGGGUGGCGCGAUAGCGCCAACGUCCUCAACCUUCAAUGCAUCCCACCACAUGAUGAUGCCUGAACAGCCUUAGUUUUUUG, for which the “polymerase ribozyme fitness (log ratio)” value was -2.45.

On to GACCAAUCUGCCCUCAGAGCUCGAGAACAUCUUCGGAUGCAGAGGAGGGAGGCUUCGGUGGUGCGAUAGCGCCAACGUCCUCAACCUCCUAUGCAUCCCACCACAUGAUGAUUCCUGAAGAGCCUUGGUUUUUUG, for which the “polymerase ribozyme fitness (log ratio)” value is -4.27.

On to GACCAAUCUGCCCUCAGAGCUCGAGAACAUCUUCGGAUGCAGAGGAGGGAGGCUUCGGUGGCGCGAUAGCGCCAACGUCCUCAACCUCCAAUGCAUCCCCUCACAUGAUGAUGCCUGAAGAGCCUUGGUUUUUUG, for which the “polymerase ribozyme fitness (log ratio)” value is -1.62.

Turning to GACCAAUCUGCCCUCAGAGCUCGAGAACAUCUUCGGAUGCAGAGGAGGGAGGCUUCGGUGGCGCGAUGGCGCCAACUUCCUCAACCUCCAAUGCAUCCCACCACAUGAUGAUGCCUGAAGAGCCUUGGUUUUUUG, the “polymerase ribozyme fitness (log ratio)” value is -4.38.

Turning to GACCAAUCUGCCCUCAGAGCUCGAGAACAUCUUCGGAUGCAGAGGAGGGAGGAUUCGGUGGCGCGAUAGCGCCAACGUCCUCAACCUCCAAUGUAUCCCACCACAUGAUGAUGCCGGAAGAGCCUUGGUUUUUUG, the “polymerase ribozyme fitness (log ratio)” value was -2.47.

As to GACCAAUCUGCCCUCAGAGCUCGAGAACAUCUUCGGAUGCAGAGGAGGGAGGCUUCGGUGGAGCGAUAGCGCCAACGUCCUCAACCUCCAAUUCAUCCCACCAAAUGAUGAUUCCAGAAGAGCCUUGGUUUUUUG, the “polymerase ribozyme fitness (log ratio)” value is -7.29.

For the variant GACCAAUCUGCCCUCAGAGCUCGAGAACAUCUUCGGAUGCAGAGGAGGGAGGCUUCGGUGGCGCGAUAGCGCCAACGUCUUCAAGCUCCAAUGCAUCCCACCACAUGAUGAUGCCUGAAGAGCCUUGGUUUUUUG, the “polymerase ribozyme fitness (log ratio)” value is -2.11.

As to GACCAAUCUGCCCUCAGAGCUCGAGAACAUCUUCGGAUGCAGAGGAGGGAGGCUUCGGUGGCGCGAUAGCGACAACGUCCUCAACCUCCAAUGCAUCCCACCACAUGAUGAUGCCUGAAGAGCCUUGGUUUUUUG, the “polymerase ribozyme fitness (log ratio)” value is -0.887.

GACCAAUCUGCCCUCAGAGCUCGAGAACAUCUUCGGAUGCAGAGGAGGGAGGCUUCGGUGGCGCGAUAGCGCCAACGUCCUCAACCUACAAUGCAGCCCACCACAUGAUGAUGCCUGAAGAGCCGUGGUUUUUUG: the “polymerase ribozyme fitness (log ratio)” value is -2.28.

Regarding GACCAAUCUGCCCUCAGAGCUCGAGAACAUCUUCGGAUGCAGAGGAGGGAGGCUUCGGUGGCGCGAUAGGGCCAACUACCUCAAACUCCAAUGCAUCCCACCACAUGAUGAUGCCUGAAGAGCCUUGGUUUUUUG, the “polymerase ribozyme fitness (log ratio)” value is -2.95.

For GACCAAUCUGCCCUCAGAGCUCGAGAACAUCUUCGGAUGCAGAGGAGGGAGGCUUCGGUGGCGCGAUAGCGCCAACGUCCUUAACCUCCAAUGCAUCCCAGCACAUGAUGAUGCCUGAAGAGCCUUGGUUUUUUG, the “polymerase ribozyme fitness (log ratio)” value is -2.53.

GACCAAUCUGCCCUCAGAGCUCGAGAACAUCUUCGGAUGCAGAGGAGGGAGGCUUCGGUGGCGCGAUAGCGCCAACGUCCUCGACCUCCAAUGCAUCCCACCACAUGAUGAUGCCUGAAGAGCCUUGGUUUUUUG: the “polymerase ribozyme fitness (log ratio)” value is 0.789.

Take GACCAAUCUGCCCUCAGAGCUCGAGAACAUCUUCGGAUGCAGAGGAGGGAGGCUUGGGUGGCGCGAUAGCGCCAACGUCCUCAACCUCCACUGCAUCCCACCACAUGAUGAUGCCUGAAGAGCCUUGGUUUUUUG: the “polymerase ribozyme fitness (log ratio)” value was -2.49.

With GACCAAUCUGCCCUCAGAGCUCGAGAACAUCUUCGGAUGCAGAGGAGGGAGGCUUCGGUGGCGCGAUAGCGGCAACGUCCUCAACCUCCAAUGCAUCCCACCACAUGAUGAUGCCUAAAGAGCCAUGGUUUUUUG, the “polymerase ribozyme fitness (log ratio)” value was -4.73.

On to GACCAAUCUGCCCUCAGAGCUCGAGAACAUCUUCGGAUGCAGAGGAGGGAGGCUUCGGUGGCGCGAUAGUGCCAACGUCCUCAAGCUCCAAUGCAUCCCACCACUUGAUGAUGCCUGAAGAGCCUUGGUUUUUUG, for which the “polymerase ribozyme fitness (log ratio)” value is -3.38.

For GACCAAUCUGCCCUCAGAGCUCGAGAACAUCUUCGGAUGCAGAGGAGGGAGGCUUCGGUGGCGCGAUAGUGCCAACGUCCUCAACCUCCAAUGCAUCCCACCACAUGAUGAUUCCUGAAGAGCCCUGGUUGUUUG, the “polymerase ribozyme fitness (log ratio)” value was -6.12.

Consider GACCAAUCUGCCCUCAGAGCUCGAGAACAUCUUCGGAUGCAGAGGAGGGAGGCUUCGGUGGCGCGAUAGCGCCAACGUCCUCAACCUCCAAUGCAUCCCACCACAUGAUGAUGCCUGAAGCGCCUUGGUUUUUUG, for which the “polymerase ribozyme fitness (log ratio)” value stood at 0.434.

Regarding GACCAAUCUGCCCUCAGAGCUCGAGAACAUCUUCGGAUGCAGAGGAGGGAGGCUUCGGUGGCGCGAUAGCGCCAACGUCCUCAACCUCCAAUGCAUCCCACCUCAUGAUGAUGCCUGAAGAGCCUUGGUUUUUUG, the “polymerase ribozyme fitness (log ratio)” value is -5.7.

With GACCAAUCUGCCCUCAGAGCUCGAGAACAUCUUCGGAUGCAGAGGAGGGAGGCUUCGGUGGCGCGAUAGCGCCAACGUCCUCAACCUCCAUUGCAUCCCACCACAUGAUGAUGCAUGAAGAGCCUUGCUUAUUUG, the “polymerase ribozyme fitness (log ratio)” value was -6.98.

With GACCAAUCUGCCCUCAGAGCUCGAGAACAUCUUCGGAUGCAGAGGAGGGAGGCUUCGGUGGCGCGAUAGCGCCAACGUCCUUAACCUCCAAUUCAUCCCACCACAUGAUGAUGCCUUAAGAGCCUUGGUUUUUUG, the “polymerase ribozyme fitness (log ratio)” value is -4.66.
